According to patent US20220275090A1, “Combination Therapies with Anti-CD38 Antibodies and PARP or Adenosine Receptor Inhibitors” (Janssen Biotech, Inc., priority 2021, published 2022):

Molecular target: T1, mouse CD38 (Mus musculus, UniProt P56528)
T1 sequence (P56528 1-304): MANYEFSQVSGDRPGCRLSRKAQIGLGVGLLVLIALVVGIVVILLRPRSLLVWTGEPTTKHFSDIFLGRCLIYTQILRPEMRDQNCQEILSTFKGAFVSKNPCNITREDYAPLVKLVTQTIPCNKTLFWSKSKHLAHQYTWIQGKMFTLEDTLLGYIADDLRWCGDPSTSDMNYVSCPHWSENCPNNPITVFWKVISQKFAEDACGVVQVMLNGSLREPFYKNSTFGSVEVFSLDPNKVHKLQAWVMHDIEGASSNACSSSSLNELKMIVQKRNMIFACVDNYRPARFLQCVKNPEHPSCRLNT
Assay: Binding to mouse CD38 (statement)

binding to mouse CD38: does not bind
Substance: Daratumumab: anti-CD38 antibody of IgG1/κ subtype; heavy chain SEQ ID NO: 12, light chain SEQ ID NO: 13
